Laboratory results reported in the DeepSol protein solubility set.

Experiment: soluble on expression in E. coli; label from the status in PepcDB or PDB records

Soluble on expression in E. coli, soluble:
MTGNKIHNPLDRNHSELRDKKVSLNDGDPFTIALFGVDSDADRKKKGGGERSDSIMILSINPKTKKTEIVSIPRDTRAEIVGRGTTEKIAHAYAYGGPNMAVKSLEKLMNVPIDHYATIDMDGLHNMIDSIGGVDVVSNDTFTVDGVRFTKGQQTHVNGDQALKFIRSRKEEGAGGDFGRQQRQQIVLEAMANKIASPSSITHFNSLMNEIQNNVKTDLTLGDLNTIRSNYKDANDTINKHQLSGQGGIQSDGLYYFIPSEQSKAESTKLLKDNLELEHHHHHH
MTHNGGRHLLEAVTLCGSILTRYKRSNMKLDEAEVRALKELFEKYQDILVDGSPGLPTHASGPMIQPPVTNMVAPYDSPTDTIVKFVEGTINLQRPIVEVLHVMNEHLSLVLRAKNTHVFYVDPVNNLLYDPIHGVAAALDESSPIGKAIVSGERLNVAGTLYIPIISEGMPLGCVLSPCGRADYHASTMLESSLRVISTSLKNIIQAEKLNWNKEKAEAMLRMATQLARDNLEETVLASSIMNTVKSLTESARCSLFLVRGDVLEAHFEDGNVVTIPRGAGIAGYVAQTGETVNIVDAYADDRFNREVDKATGYRTKTILCMPVMYEGTIVAVAQLINKLDLTTESGLRLPRVFGKRDEELFQTFSMFAGASLRNCRINDRLLKEKKKSDVILDVVTVLSNTDIRDVDGIVRHALHGAKKLLNADRSTLFLVDKERNELCSRMADSVAGKEIRFPCGQGIAGTVAASGVGENIQDAYQDPRFNREVDKQLGYRTQTILCEPIILNGEILAVVQLVNKLDTSGEVTVFTEDDRETFRVFSLFAGISINNSHLLEFAVKAGREVMELNEHRATLFNKNVPSRAVKRVTAITKVEREAVLVCELPSFDVTDVEFDLFRARESTDKPLDVAAAIAYRLLLGSGLPQKFGCSDEVLLNFILQCRKKYRNVPYHNFYHVVDVCQTIYTFLYRGNVYEKLTELECFVLLITALVHDLDHMGLNNSFYLKTESPLGILSSASGNTSVLEVHHCNLAVEILSDPESDVFGGLEGAERTLAFRSMIDCVLATDMAKHGSALEAFLASAADQSSDEAAFHRMTMEIILKAGDISNVTKPFDISRQWAMAVTEEFYRQGDMEKERGVEVLPMFDRSKNMELAKGQIGFIDFVAAPFFQKIVDACLQGMQWTVDRIKSNRAQWERVLETRLSTSSGNNSSTR
MTIEKEIEGLIHKTNKDLLNENANKDSRVFPTQRDLMAGIVSKHIAKNMVPSFIMKAHESGIIHVHDIDYSPALPFTNCCLVDLKGMLENGFKLGNAQIETPKSIGVATAIMAQITAQVASHQYGGTTFANVDKVLSPYVKRTYAKHIEDAEKWQIADALNYAQSKTEKDVYDAFQAYEYEVNTLFSSNGQTPFVTITFGTGTDWTERMIQKAILKNRIKGLGRDGITPIFPKLVMFVEEGVNLYKDDPNYDIKQLALECASKRMYPDIISAKNNKAITGSSVPVSPMGCRSFLSVWKDSTGNEILDGRNNLGVVTLNLPRIALDSYIGTQFNEQKFVELFNERMDLCFEALMCRISSLKGVKATVAPILYQEGAFGVRLKPDDDIIELFKNGRSSVSLGYIGIHELNILVGRDIGREILTKMNAHLKQWTERTGFAFSLYSTPAENLCYRFCKLDTEKYGSVKDVTDKGWYTNSFHVSVEENITPFEKISREAPYHFIATGGHISYVELPDMKNNLKGLEAVWDYAAQHLDYFGVNMPVDKCFTCGSTHEMTPTENGFVCSICGETDPKKMNTIRRTCAYLGNPNERGFNLGKNKEIMHRVKHQ
MTKHKERVMYYGKGDVFAYRTYLKPLTGVRTIPESPFSGRDHILFGVNVKISVGGTKLLTSFTKGDNSLVVATDSMKNFIQKHLASYTGTTIEGFLEYVATSFLKKYSHIEKISLIGEEIPFETTFAVKNGNRAASELVFKKSRNEYATAYLNMVRNEDNTLNITEQQSGLAGLQLIKVSGNSFVGFIRDEYTTLPEDSNRPLFVYLNIKWKYKNTEDSFGTNPENYVAAEQIRDIATSVFHETETLSIQHLIYLIGRRILERFPQLQEVYFESQNHTWDKIVEEIPESEGKVYTEPRPPYGFQCFTVTQEDLPHENIL

Soluble on expression in E. coli, not soluble:
MTGSQFPREELFAPGHRGCAGCGAAIVARLALKAAGKNTIVANATGCLEVMTTPYPETAWRVPWIHVAFENAAAVASGIEGAVVALKRKKGKYGEEKVNVIAFGGDGGTADIGFQALSGAMERGHDMVYIMYDNEAYMNTGVQRSGSTPFMASTTTSPAGSHIRGENRPKKDMPMIMAAHGIPYIATASISYPEDFMNKVKKACEVNGPAFIQVLQPCTTGWGYPAENTVEMGRLAVETGVWPLFEIENGEFKLNYKPLKRKPIEEYLKVQKRYRHLKPEDISVIQETIDMKCDEYGL
MTHLLETKNLSVSFGEHHVIKDVNLIVQKGKLISIIGPNGAGKTTLFNLLSGQISPTKGEVYFKGQEITKLSISDRTRLGIGRSFQLTNIFPELTVLENVRLSVQSFVQDYYSFFPSSAKFKQQVGEARRFLKTVLLQEKEHVLAKDLAHGEKRKLELAMLLALKTDVLLLDEPTAGISVEEVPAILQVIENIKKHPESTIVLIEHKMDMVLGLSDHLIVLFHGELLAEGMPEEIMKDERVQSAYLGGLYSGTITSE
MTHVTPFSNPFLLGFETIEKTLRRIGKADETYPAYNIERLHKNDDASHIRITLAVAGFKVNNLNILLDDNQLIIHGKQTDSQNHQYLYRGIAARQFQRTFVLVEGMHVTNAELKNGLLSINLYQPKTKKQMKQIPIKVSNKS
MTIDTTNESDNSPTNSPGLEASARTFSLNASKMVRITDDYADEVFIEQNDVVIEKPRMDPLHVRKLMETWRKAARRARTNYIDPWDEFNIHEYPVQRAKRYRYSAIRKQWTEDIVDVRLHPDSFARGAMRECYRLKKCSKHGTSQDWSSNYVAKRYICQVDRRVLFDDVRLQMDAKLWAEEYNRYNPPKKIDIVQMCVIEMIDVKGSPLYHLEHFIEGKYIKYNSNSGFVSNAARLTPQAFSHFTFERSGHQMMVVDIQGVGDLYTDPQIHTVVGTDYGDGNLGTRGMALFFHSHRCNDICETMDLSNFELSPPEIEATEVAMEVAAKQKKSCIVPPTVFEARRNRISSECVHVEHGISMDQLRKRKTLNQSSTDLSAKSHNEDCVCPECIPVVEQLCEPCSEDEEDEEEDYPRSEKSGNSQKSRRSRMSISTRSSGDESASRPRKCGFVDLNSLRQRHDSFRSSVGTYSMNSSRQTRDTEKDEFWKVLRKQSVPANILSLQLQQMAANLENDEDVPQVTGHQFSVLGQIHIDLSRYHELGRFVEVDSEHKEMLEGSENDARVPIKYDKQSAIFHLDIARKCGILEAVLTSAHIVLGLPHELLKEVTVDDLFPNGFGEQENGIRDLEEFGSDLMEIAAEMGDKGAMLYMAHAYETGQHLGPNRRTDYKKSIDWYQRVVGFQEEEELDSDCGKTTFSSFAPLTRHEILAKMAEMYKEGGYGLNQDFERAYGLFNEAAEAAMEAMNGKLANKYYEKAEMCGE
MTIKTLQYDDFMLYRERIRDLLVQIYDINFDVSHDYSINESNKKINLLDEYIKTNQAVLIGAVDGEKLVGFIWIYKHEYFGETRMHINQIIVDKEYKRKGIGKRLLEEAEKKAKELGIKVIDLFVSEKNAEAVNFYEKTGFVTERRYLKKILLEHHHHHH
MTKAVVIGGGLAGLATTALLLREGYEVHLVEQNEHLGGRAGTFELDGFRWDTGPSWYLMPDAMSHFFKLCGTSIDDHLDLVPLEPAYRVIDDHGEFIDVTSDIDAMAELFESREPGAGAKLRTYIDSATQVYNLAIDGFLYTNFTNFIPYLSPGMLRLLPKLLASLSTSLKVKVNTQFRDTKLRQILSYPAVFLSSDPSHTPALYHLMSHTDLVQGVSYPRGGFTAFIKALISLIDDAVLHLGTPVSAITTQGRNATGVQVGSEFIEADIVISCADQHHTETQLLPASLCAKPETSWKNKQPGLSTVLVLAGVKGEHTLLFPPTGTKISAKFSTAPPQNSRLQNPSRSPRPPQQIPMPHPKATRTSSSWSQYPPMSPLVTGPLTEKNLTWWAGSQLEHHHHHH
MTKEKLSWLQQKMLNKSIKKKCQNFRELGYSSINEEDLLTYLLTYRWKKQTHLSVKDCRKDIHKVKPNEFFDYQQLLAQTSKNPLRDWHDIEDLF
MTKISERNIKVARKNVCKNIQRLNKKLSNKIKNEEAALPDIIAGTHGTPIEKLLTLYKLSDPIFTAIRPFTACRYGCSACCHYKVDLLPIEAELIAISLGQAPLPLPTTFQNGHGKRCPFLSKNGQCNIYSIRPMACRRHFMFTNSDYWCNPVHSEDIKIKMLGFSGIIEAYINIANQDGRYSPENIRDIRDYFTAGIDADVNARELDSELEHHHHHH
